The data set can be described thus: yeast display, Sf9 membrane polyspecificity reagent, FACS + sequencing; frameworks hold sequencing errors. In short, it runs like this: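 Polyreactivity labels are assigned by the sorting gate from which each nanobody was recovered. The gates were low and high (top ~1%), set on anti-HA fluorescence for expression and streptavidin fluorescence for reagent binding. Before sorting, galactose-induced (36–48 hours) yeast display cells were stained for 1 hour at 4 °C with 10% biotinylated, detergent-solubilized Sf9 membrane reagent.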
Regarding “QVQLVESGGGLVKAGGSLRLTCAASGRIFGPYVMGWYRQAPGKERELVAAISTSGTSTYYADSVKGRFTISRDNAKNTVYLQMNSLKPEDTAVYYCAKRSGARHRLMDYWGQGTQVTVSS”, the “polyreactivity (PSR sort gate)” value is on record as “low polyreactivity”.

As for “QVQLVESGGGLVKAGGSLRLTCAASGRTFGDNAMVWYRQATGKEMELVAAIRWGGGSTYYADSVKGRFTISRDNAKNTVFLQMNRLKPEDTAVYYCAKDDWDIALVHGEYDYWGQGTQVTVSS”, the “polyreactivity (PSR sort gate)” value was “low polyreactivity”. Consider “QVQLVESGGGLVKAGSSLRLSCAASGSIFLYNAMGWYRQAPGKERELVAVINGRGGTYYADSVKGRFTISRDNAKNTVYLQMNSLKPEDNSVYYCATGYPPSAWYDSVRFEDRDSWGQCTQVTVSS”, for which the “polyreactivity (PSR sort gate)” value is listed as “low polyreactivity”. As to “QVQLVESGGGLVKAVGSLRLSCAASGINLIRYVMGLYRQAPGKERELVAAISGSGGRTYYADSVKGRFTISRDNAKTTVDLQMNSLKPEDTAVYYCAAVSFRTTHGEYDYWGQGTQVTVSS”, the “polyreactivity (PSR sort gate)” value is listed as “low polyreactivity”. As to “QVQLVESGGGLVKSGGSLRLSCAASGGTFKPNVMGWYIQAPGKERELVAAITSGGSTYYADSVKGRFTISRDNAKNTVYLQMNSLKPEDTAVYYCAASSLRRYGYNYWGQVTQVTVSS”, the “polyreactivity (PSR sort gate)” value is “high polyreactivity”. In the case of “QVQLVESGGGLVLAGGSLRLSCAASEFIFARNGMGWYIQAPGKERELVAAITKSGSTYADSVKGRFTISRDNAKNTVYLQMNSLKPEDTAVYYCNKDPGNVSSFTGGGYWGQGTQVTVSS” it was “low polyreactivity”; in that of “QVQLVESGGGLVLAGGSLRLSCAASGGIYTTYAMGWYREAPGKERELVAAISRSGGSTYYADSVKGRFTISRDNAKNTVYLQMNSLKPDDTAVYYCAADQYMCRAWRGRVYYWGQGTQVTVSS”, “high polyreactivity”. Regarding “QVQLVESGGGLVLAGGSLRLSCAASGRIFGTNAMGWYRQAPGKERELVAAISLSGGRTYADSVKGRFTISRDNAKNTVYLQMNSLKPEDTAVYYCNADSAGITRSRSELDYWGQGTQVTVSS”, the “polyreactivity (PSR sort gate)” value is given as “low polyreactivity”. As for “QVQLVESGGGLVLAGGSLRLSCAASGRTFGIYAMGWYRQAPGKEREIVAAISWSGTSTHYADSVKGRFTISRDNAKNTVYLQMNSLKPEDTAVYYCAAAKTGRGSGTTGFGYWGQGTQVTVSS”, the entry is “high polyreactivity”; as for “QVQLVESGGGLVLAGGSLRLSCAASGSILEGYVMGWYRQAPGKERELVAAISRGGGSTYYADSVKGRFTISRDNAKNTVYLQMNSLKPEDTAVYYCAARFAASYYWGQGTQVTVSS”, “high polyreactivity”; as for “QVQLVESGGGLVLAGGSLRLSCAASGSILYYNAMGWYRQAPVKERELVAAITLDGASTYYSDSVKGLFTISRDNAKNTVYLQMNSLKPEDTAGYYCAADYAYWLSGYDYWGQGSQVTVSS”, “low polyreactivity”. For the sequence “QVQLVESGGGLVLAGGSLRLSCAASGSTFARNAMGWYRHAPGKERELVAAISWNGGRTYYADSVKGRFTISRDNAKNTVYLQMNSLKPEDTAVYYCAAKYVKDYWSDFDYWGQGTQVTVSS”, the “polyreactivity (PSR sort gate)” value is “high polyreactivity”.

As to “QVQLVESGGGLVLAGGSLRLSCAASGSTFEYNAMGWYRPAPGKERELVASSTNYADSVKGRFTISRDNAKNTVSLQRNSLKPEDTAVNYSAREQGVNRNHDYWGQGTQVTVSS”, the “polyreactivity (PSR sort gate)” value was “low polyreactivity”. As for “QVQLVESGGGLVLAGGSLRLSCASSGRTFPSYAKGWYRQAPGKERELVAAITRGGSTNYADSVKGRFTISRDNAKNTVYLQMNSLKPEDTAVYYCAAARWRWQLARDDYWGQGTQVTVSS”, the entry is “high polyreactivity”; as for “QVQLVESGGGLVLAGGSLRLSSAASGFTFSPYAMGWYRQAPGKERELVPAISASGGRTYYADSVKGRFTISRDYAKNTVYLQMNSLKPEDTAVYYCAAKLYDSGGRYWYDYWGQGTQVTVSS”, “high polyreactivity”. In the case of “QVQLVESGGGLVNAGGSLRLSCAASGITFWGYAMGWYRQAPGKERELVAAITSGGTTYYADSVKGRFTISRDNAKNTVYLQMNSLKPEDTAVYYCNARYPSADDWGQGTQVTVSS” it was “high polyreactivity”; in that of “QVQLVESGGGLVPAGGSLRLICAGSAFTFRSYAIGWYRQAPGQERELVAAISLGGTSTYYADSVKGRFTISRDNAKNTVYLQMNSLKPEDTAVYSCAARSYGHYGYWGQGTQVTVSS”, “high polyreactivity”. “QVQLVESGGGLVPAGGSLRLSCAASGFIFVTNGMGWYRQAPGKERELVAAITDNGGSTYYADSGKGRFTISRDNAKNTVYLQMNSLKPEDTAVYYCNADRVVGPYDGYDYWGQGTQVTVSS”: the “polyreactivity (PSR sort gate)” value is “low polyreactivity”. As for “QVQLVESGGGLVPAGGSLRLSCAASGFTFSGYAMGWYRQAPGKERELVAAITRRGGSTYYADSVKGRFTISRDNAKNTVYLQMNSLKPEDTAVYYCAADSGYPWELDYWGQGTQVTVSS”, the entry is “low polyreactivity”; as for “QVQLVESGGGLVPAGGSLRLSCAASGFTFTRYAMGWYRQARGKERELVAAISWNGGSTYYADSVKGRFTISRDNAKKTVYLQMNSLKPEDTAVYYCAVRFKYQWSNFGYWGQGTQVTVSS”, “high polyreactivity”. As for “QVQLVESGGGLVPAGGSLRLSCAASGLTFYYYAMGWSRQAPGKERELVAGISGSDGSTYYADSVKGRFTISRDNAKNTVYLQMNSLKPEDTAVYYFAAEYYYPWPLYYITDGIYDMYYWGQGTQVTVSS”, the entry is “low polyreactivity”.

On to “QVQLVESGGGLVPAGGSLRLSCAASGRIFYYYAMGWYRQAPGKERELVAAISSSGGSTYYADSVKGRFTISRDNAKKTVYLQMNSLKPEDTAVYYCAKRYALSGYYRLYDYWGQGTQVTVSS”, for which the “polyreactivity (PSR sort gate)” value is listed as “high polyreactivity”. Take “QVQLVESGGGLVPAGGSLRLSCAASGSIFGFYAMGWYRQSPGKERELVAGISYGDSSTYYADSVKGSFTISRDNAKNTVYLQMNSLKPEDTAVYYCAAGHRQKYNWGRYDYWGQGTQVTVSS”: the “polyreactivity (PSR sort gate)” value is listed as “low polyreactivity”. “QVQLVESGGGLVPAGGSLRLSCAASGSIFLAYAMGWYRQAPGKERELVAAITSIDGITSYADSVKGRFTISRDNAKNTVYLQMNSLTPEDTAVSYCAAPDGHWIRQWDTFEYWGQGTQVTVSS”: the “polyreactivity (PSR sort gate)” value is “low polyreactivity”. As for “QVQLVESGGGLVPAGGSLRLSCAASGSIFTNAMGWYRQAPGKERELVAAIDANAGDTHYADSVKGRFTISRDNAKNTVYLQMNSLKPEDTAVYSCNADVTERLWTGEDDYWGQGTQVTVSS”, the entry is “low polyreactivity”; as for “QVQLVESGGGLVPAGGSLRLSCAASGSIFVQNAMGWYRQAPGKERELVAVINSGDSTNYADSVKGRFTISRDNAKNTVYLQMNSLKPEDTAVYYCNADVSYTSEDQRALFTNVYYWGQGTQVTVSS”, “low polyreactivity”; as for “QVQLVESGGGLVPAGGSLRLSCAASGYTFYFYAMGWYRQAPGKERELVAAITGGGTTSYADSVKGRFTISRDNAKNTVYLQMNSLKPEDTADSYCNVLFADKSDYWGQATQVTVSS”, “low polyreactivity”. In the case of “QVQLVESGGGLVPAGGSLRLSCASSGITFRVYVMGWYRQAPGKESELVAPIDDNGGSTYYADSVKGRFTISRDNAKNTVYLQMNSLKPEDTAVYYCAKAIVYSLLEYGWVDYDDWGQGTQLTVSS” it was “low polyreactivity”; in that of “QVQLVESGGGLVPARGSLRLSWAASGSTFSLYAMGWYRQAPGKERELVAAISWSGGNTYYADSVKGRFTISRDNAKNTVYLQMNSLKPEDTAVYYCAAEGKTFHRYYLYSYDYWGQGTQVTVSS”, “high polyreactivity”; in that of “QVQLVESGGGLVPSGGSLRLSCAASGRIFTSNAMGWYRQAPGKERELVAAISKSGGRTYYADSVKGRFTISRDNAKNTVYLQMNSLKPEETAVYYFAKDNFWGQGTQVTLSS”, “high polyreactivity”.

As for “QVQLVESGGGLVQAAASLRLSCAAYGITFNSYVMGWSRQAPGKERELVAVISRGGGITYYADSVKGRFTISRDNAKNTVYLQMNSLKPEDTAVYYCAADHTHVYVLYYNDNYWGQGTQVTVSS”, the “polyreactivity (PSR sort gate)” value is on record as “high polyreactivity”. “QVQLVESGGGLVQAAGILRLSCAASGFIVVRNAMGWYRQAPGKERELVAAISAIGSSTYYADSVKGRFTISRDNAKNTVYLQLNSLKPEDTAVYYCAASGSRVSERSPTRLDYYCGQGTQVTVSS”: the “polyreactivity (PSR sort gate)” value was “high polyreactivity”. On to “QVQLVESGGGLVQAAGILRLSCAASGSIFVTNAKGWYRQAPGKERELVAAISSGGNTNYADSVKGRFTISRDNAKNTVYLQINSLKPVDTAVYYCAKDPDKVDSVDMDYWGHGTQVTVSS”, for which the “polyreactivity (PSR sort gate)” value is “low polyreactivity”.

Consider “QVQLVESGGGLVQAAGRLRLSSAASGIIFYSYAMGWYRQAPGTEREFVAAITNSDGSTYYADSVKGRFTISRDNAKNTVYLQMYSLKPEDTAVYMYYWGQGTQVTVSS”, for which the “polyreactivity (PSR sort gate)” value is recorded as “low polyreactivity”. As for “QVQLVESGGGLVQAAGSLRLSCAASGFIFHYNAMGWYRKATGKERELDASITASASRTYYADSVKGRFTISLDNAKNTVYLQMNSLKPEDTAVYYCAKAIRITITRYRFGYWVQGTQVTVSS”, the entry is “high polyreactivity”. As for “QVQLVESGGGLVQAAGSLRLSCAASGITFSWYAMGWYRQAPGNERALVASITQSGGSTYYADSVKGRFTISRDNAKNTVYLQMTCLKPEVTAVYYCSKRYLKPVYCYVRNYGSDYWGQGTQVTVSS”, the entry is “low polyreactivity”. As for “QVQLVESGGGLVQAAGSLRLSCAASGQFFAYYAMGWYRQATGKEREFVAAISWTGGSTYYADSVKGRFTISRDYAKKTVYLLMNSLKPEDTGVYYCAAVSNHLRYVASRYSYYYWGQGTQVTVSS”, the entry is “high polyreactivity”. For the sequence “QVQLVESGGGLVQAAGSLRLSCAASGRTFKYNAMGWYRQAPGKERELVAAITRSGTTYYADSVKGRFTISRDNAKNTVYLQMNSLKPEDTAVYYCNARIVNYGSYYYWGQGTQVTVSS”, the “polyreactivity (PSR sort gate)” value is on record as “high polyreactivity”. As for “QVQLVESGGGLVQAAGSLRLSCAASGRTLGYYAMGWYRPAPGKERELVAAITRGGSTNYADSVKGRFTISRDNAKNTVYLQMNSLKPEDTAVYYCARRGGYFWLKGDYWGQGTQVTVSS”, the entry is “high polyreactivity”; as for “QVQLVESGGGLVQAAGSLRLSCAASGSIFSANSMGWYRQAPGKERELVAAISGRGTRTYYADSVKGRFTISRDNAKYTVYLQMNSLKPEDTAVYYCNAARDRTSPEYDYWGQGTQVTVSS”, “high polyreactivity”; as for “QVQLVESGGGLVQAAGSLRLSCAASGYTFGYYAMGWYRQAPGKERELVAAINWSGGSTYYADSVKGRFTISRDNEKNSVYLQMYSLKPEDTAVYYCAAQSRSPGYYYWGQGTQVTVSS”, “high polyreactivity”.

For the origin of these results see the nanobody polyreactivity screen of Harvey et al. (2022).
